T1: Staphylococcus aureus Enterotoxin B (Staphylococcus aureus, UniProt P01552 28-266)
T1 sequence: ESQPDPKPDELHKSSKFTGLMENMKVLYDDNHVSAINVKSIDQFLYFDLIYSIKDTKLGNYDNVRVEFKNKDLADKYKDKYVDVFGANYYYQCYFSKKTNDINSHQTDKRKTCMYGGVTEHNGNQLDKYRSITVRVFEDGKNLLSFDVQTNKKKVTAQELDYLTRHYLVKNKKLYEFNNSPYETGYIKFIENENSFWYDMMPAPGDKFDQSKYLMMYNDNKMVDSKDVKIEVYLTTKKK

T2: Staphylococcus aureus Enterotoxin A (Staphylococcus aureus, UniProt P0A0L2 25-257)
T2 sequence: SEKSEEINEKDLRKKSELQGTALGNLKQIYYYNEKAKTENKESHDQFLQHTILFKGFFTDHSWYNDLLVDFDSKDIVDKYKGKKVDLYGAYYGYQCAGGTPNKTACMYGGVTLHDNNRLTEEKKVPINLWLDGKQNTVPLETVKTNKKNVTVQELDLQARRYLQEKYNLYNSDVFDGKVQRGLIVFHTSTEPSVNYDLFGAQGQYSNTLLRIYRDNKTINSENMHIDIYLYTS

B1: anti-SEA (55) Fab (Fab, V domains shown)
VH: QVQLQQSGAELMKPGASVKISCKATGYTISSHWIEWVKQRPGHGLEWIGETLPGSGSTKYNEKFKGKATITADTSSNTAYMQLSSLTSEDSAVYYCARGDGNYGWFAYWGQGTLVTVSA
VL: DIVLTQSPALMAASPGEKVTITCSVSSSISSSNLHWYQQKSETSPKPWIYGTSNLASGVPVRFSGSGSGTSYSLTISSMEAEDAATYYCQQWSSYPLTFGAGTKLELK
B2: anti-SEA (90) Fab (Fab, V domains shown)
VH: EVQLQQSGPELVKPGASVKMSCKASGYTFTSYVMQWVKQKPGQGLEWIGYINPYNDGTKYNEKFKGKATLTSDKSSSTAYMELSSLTSEDSAVYYCARGDGVGGMDYWGQGTSVTVSS
VL: DIVMTQSPATLSVTPGDRVSLSCRASQSISDYLHWYQQKSHESPRLLIKYASQSISGIPSRFSGSGSGSDFTLSINSVEPEDVGVYYCQNGHSFPPTFGGGTKLEIK

Assays:
[1] = target: T1, Staphylococcus aureus Enterotoxin B; experiment: ELISA (screening; results not shown)
[2] = target: T2, Staphylococcus aureus Enterotoxin A

Binder | binding result [1] | Kd [2] | koff [2] | kon [2]
B1 | no binding | 3.6 nM | 0.00035 s⁻¹ | 97000 M⁻¹ s⁻¹
B2 | no binding | 3 nM | 0.0013 s⁻¹ | 420000 M⁻¹ s⁻¹

Reference: US20230400461A1 (TEKNOLOGIAN TUTKIMUSKESKUS VTT, published 2023)
